Data: the RNAGym collection of RNA variant scans (doi:10.7554/elife.90254)

B1: LINE1-mini (parent)
chain: GGCAGAGCUCAACACAGCGUGGCAAAGUGGCUGUGGCUAGACUGCC

Variants of: B1
Test: self-cleavage, relative activity (ratio to wild type); higher = more cleavage; in vitro, sequencing; the parent is a self-cleaving ribozyme

Variant	self-cleavage
GGCAGAGCUCAACACAGCGUGGCACAGUGGCUGUGGCUAGACGGCC [A25C U43G]	0.12
GGCAGAGCUCAACACAGCGUGGCACAGUGGCUGUGACUAGACUGCC [A25C G36A]	0.21
GGCAGAGCUCAACACAGCGUGGCACAGUGGCUGUGUCUAGACUGCC [A25C G36U]	0.11
GGCAGAGCUCAACACAGCGUGGCACAGUGGCUGUGCCUAGACUGCC [A25C G36C]	0.07
GGCAGAGCUCAACACAGCGUGGCUAAGUGGCUGUAGCUAGACUGCC [A24U G35A]	0.12
GGCAGAGCUCAACACAGCGUGGCUAAGUGGCUGUCGCUAGACUGCC [A24U G35C]	0.09
GGCAGAGCUCAACACAGCGUGGCUAAGUGGCUGUUGCUAGACUGCC [A24U G35U]	0.38
GGCAGAGCUCAACACAGCGUGGCACAGUGGCUGUGGCUAGUCUGCC [A25C A41U]	0.52
GGCAGAGCUCAACACAGCGUGGCACAGUGGCUGUGGCUAGGCUGCC [A25C A41G]	0.28
GGCAGAGCUCAACACAGCGUGGCACAGUGGCUGUGGCUAGCCUGCC [A25C A41C]	0.04
GGCAGAGCUCAACACAGCGUGGCUAAGCGGCUGUGGCUAGACUGCC [A24U U28C]	0.69
GGCAGAGCUCAACACAGCGUGGCUAAGGGGCUGUGGCUAGACUGCC [A24U U28G]	0.39
GGCAGAGCUCAACACAGCGUGGCUAAGAGGCUGUGGCUAGACUGCC [A24U U28A]	1.25
GGCAGAGCUCAACACAGCGUGGCAGAGUGGCUGUGGCUAGACUGCC [A25G]	0.73
GGCAGAGCUCAACACAGCGUGGCACAGUGGCUGUGGCUAGACUGCC [A25C]	0.66
GGCAGAGCUCAACACAGCGUGGCACAGUGGCUGUGGCUAGACUCCC [A25C G44C]	0.23
GGCAGAGCUCAACACAGCGUGGCACAGUGGCUGUGGCUAGACUACC [A25C G44A]	0.42
GGCAGAGCUCAACACAGCGUGGCACAGUGGCUGUGGCUAGACUUCC [A25C G44U]	0.16
GGCAGAGCUCAACACAGCGUGGCACAGCGGCUGUGGCUAGACUGCC [A25C U28C]	0.44

Variant	self-cleavage
GGCAGAGCUCAACACAGCGUGGCACAGGGGCUGUGGCUAGACUGCC [A25C U28G]	0.65
GGCAGAGCUCAACACAGCGUGGCACAGAGGCUGUGGCUAGACUGCC [A25C U28A]	1.37
GGCAGAGCUCAACACAGCGUGGCACAGUGGCGGUGGCUAGACUGCC [A25C U32G]	0.05
GGCAGAGCUCAACACAGCGUGGCACAGUGGCCGUGGCUAGACUGCC [A25C U32C]	0.25
GGCAGAGCUCAACACAGCGUGGCACAGUGGCAGUGGCUAGACUGCC [A25C U32A]	0.05
GGCAGAGCUCAACACAGCGUGGCACAGUGGCUGUCGCUAGACUGCC [A25C G35C]	0.1
GGCAGAGCUCAACACAGCGUGGCACAGUGGCUGUUGCUAGACUGCC [A25C G35U]	0.12
GGCAGAGCUCAACACAGCGUGGCACAGUGGCUGUAGCUAGACUGCC [A25C G35A]	0.11
GGCAGAGCUCAACACAGCGUGGCAGAGUGGCUGUGGCUUGACUGCC [A25G A39U]	0.81
GGCAGAGCUCAACACAGCGUGGCAGAGUGGCUGUGGCUCGACUGCC [A25G A39C]	0.22
GGCAGAGCUCAACACAGCGUGGCAGAGUGGCUGUGGCUGGACUGCC [A25G A39G]	0.07
GGCAGAGCUCAACACAGCGUGGCUAAGUGGCUGGGGCUAGACUGCC [A24U U34G]	0.24
GGCAGAGCUCAACACAGCGUGGCUAAGUGGCUGAGGCUAGACUGCC [A24U U34A]	0.08
GGCAGAGCUCAACACAGCGUGGCUAAGUGGCUGCGGCUAGACUGCC [A24U U34C]	0.09
GGCAGAGCUCAACACAGCGUGGCACCGUGGCUGUGGCUAGACUGCC [A25C A26C]	1.13
GGCAGAGCUCAACACAGCGUGGCACUGUGGCUGUGGCUAGACUGCC [A25C A26U]	0.68
GGCAGAGCUCAACACAGCGUGGCUAAGUGGCCGUGGCUAGACUGCC [A24U U32C]	0.2
GGCAGAGCUCAACACAGCGUGGCUAAGUGGCAGUGGCUAGACUGCC [A24U U32A]	0.07
GGCAGAGCUCAACACAGCGUGGCUAAGUGGCGGUGGCUAGACUGCC [A24U U32G]	0.12

Variant	self-cleavage
GGCAGAGCUCAACACAGCGUGGCUAAGUGGCUGUGGCUAGACUUCC [A24U G44U]	0.19
GGCAGAGCUCAACACAGCGUGGCUAAGUGGCUGUGGCUAGACUACC [A24U G44A]	0.44
GGCAGAGCUCAACACAGCGUGGCUAAGUGGCUGUGGCUAGACUCCC [A24U G44C]	0.67
GGCAGAGCUCAACACAGCGUGGCACAGUGGCUGUGGCUGGACUGCC [A25C A39G]	0.07
GGCAGAGCUCAACACAGCGUGGCACAGUGGCUGUGGCUCGACUGCC [A25C A39C]	0.08
GGCAGAGCUCAACACAGCGUGGCACAGUGGCUGUGGCUUGACUGCC [A25C A39U]	0.52
GGCAGAGCUCAACACAGCGUGGCUAACUGGCUGUGGCUAGACUGCC [A24U G27C]	0.61
GGCAGAGCUCAACACAGCGUGGCUAAUUGGCUGUGGCUAGACUGCC [A24U G27U]	0.8
GGCAGAGCUCAACACAGCGUGGCUAAAUGGCUGUGGCUAGACUGCC [A24U G27A]	0.92
GGCAGAGCUCAACACAGCGUGGCACAGUGGCUGUGGCUAGAAUGCC [A25C C42A]	0.11
GGCAGAGCUCAACACAGCGUGGCACAGUGGCUGUGGCUAGAGUGCC [A25C C42G]	0.04
GGCAGAGCUCAACACAGCGUGGCACAGUGGCUGUGGCUAGAUUGCC [A25C C42U]	0.41
GGCAGAGCUCAACACAGCGUGGCACAGUGGCUGUGGCUAGACUGUC [A25C C45U]	0.49
GGCAGAGCUCAACACAGCGUGGCACAGUGGCUGUGGCUAGACUGGC [A25C C45G]	0.11
GGCAGAGCUCAACACAGCGUGGCACAGUGGCUGUGGCUAGACUGAC [A25C C45A]	0.23
GGCAGAGCUCAACACAGCGUGGCUAAGUGGCUAUGGCUAGACUGCC [A24U G33A]	0.05
GGCAGAGCUCAACACAGCGUGGCUAAGUGGCUUUGGCUAGACUGCC [A24U G33U]	0.08
GGCAGAGCUCAACACAGCGUGGCUAAGUGGCUCUGGCUAGACUGCC [A24U G33C]	0.06
